Source: patent publication US20170327598A1 (published 2017)
Read-outs that look alike come from different tables or passages of the source.

Experiments:
STAT 5a protein [1] = biological target: T1, STAT 5a protein (UniProt P42229 1-794, limits assumed); experiment: sandwich ELISA, STAT protein coated at 0.5 µg/mL
T1 sequence (looked up): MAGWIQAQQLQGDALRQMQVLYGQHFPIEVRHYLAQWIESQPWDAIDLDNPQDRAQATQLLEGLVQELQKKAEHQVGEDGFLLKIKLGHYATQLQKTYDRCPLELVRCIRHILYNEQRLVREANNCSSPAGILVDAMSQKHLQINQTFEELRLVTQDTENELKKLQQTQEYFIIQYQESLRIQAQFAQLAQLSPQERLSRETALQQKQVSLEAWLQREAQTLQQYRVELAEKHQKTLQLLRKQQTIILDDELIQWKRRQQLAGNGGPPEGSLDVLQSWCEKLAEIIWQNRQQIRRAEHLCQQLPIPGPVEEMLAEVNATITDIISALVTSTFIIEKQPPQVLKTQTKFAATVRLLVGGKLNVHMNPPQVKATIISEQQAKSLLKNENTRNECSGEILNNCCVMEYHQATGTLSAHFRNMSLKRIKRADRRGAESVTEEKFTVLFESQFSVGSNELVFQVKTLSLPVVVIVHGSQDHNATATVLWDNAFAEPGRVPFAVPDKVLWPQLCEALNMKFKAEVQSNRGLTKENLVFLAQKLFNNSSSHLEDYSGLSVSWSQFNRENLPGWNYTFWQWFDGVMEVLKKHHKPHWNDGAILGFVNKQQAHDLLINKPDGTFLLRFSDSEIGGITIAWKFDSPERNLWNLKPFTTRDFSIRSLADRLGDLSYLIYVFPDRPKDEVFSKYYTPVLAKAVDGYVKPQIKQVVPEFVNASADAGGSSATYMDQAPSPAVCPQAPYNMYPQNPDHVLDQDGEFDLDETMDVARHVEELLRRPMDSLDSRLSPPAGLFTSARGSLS

STAT 1 protein [2] = biological target: T2, STAT 1 protein (UniProt P42224 1-750, limits assumed); experiment: sandwich ELISA, STAT protein coated at 0.5 µg/mL
T2 sequence (looked up): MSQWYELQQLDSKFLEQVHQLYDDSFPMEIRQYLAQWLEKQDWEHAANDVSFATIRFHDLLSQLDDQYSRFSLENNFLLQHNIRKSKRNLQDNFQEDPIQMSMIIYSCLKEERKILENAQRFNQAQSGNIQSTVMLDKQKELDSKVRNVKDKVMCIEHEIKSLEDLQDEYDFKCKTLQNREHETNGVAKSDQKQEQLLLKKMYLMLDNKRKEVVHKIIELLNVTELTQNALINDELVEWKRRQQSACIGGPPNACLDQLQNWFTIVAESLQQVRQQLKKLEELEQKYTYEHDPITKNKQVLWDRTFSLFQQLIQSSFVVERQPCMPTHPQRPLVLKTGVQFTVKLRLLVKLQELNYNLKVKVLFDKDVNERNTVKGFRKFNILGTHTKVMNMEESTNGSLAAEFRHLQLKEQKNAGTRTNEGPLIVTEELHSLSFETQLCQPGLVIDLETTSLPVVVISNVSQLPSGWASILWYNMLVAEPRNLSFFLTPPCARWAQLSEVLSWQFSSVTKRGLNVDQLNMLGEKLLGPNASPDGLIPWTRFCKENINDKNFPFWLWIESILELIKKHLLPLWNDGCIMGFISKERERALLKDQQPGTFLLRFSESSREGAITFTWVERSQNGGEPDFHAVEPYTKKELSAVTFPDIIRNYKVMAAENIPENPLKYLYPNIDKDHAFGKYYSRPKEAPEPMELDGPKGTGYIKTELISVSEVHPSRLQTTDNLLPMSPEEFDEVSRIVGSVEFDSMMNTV

STAT 2 protein [3] = biological target: T3, STAT 2 protein (UniProt P52630 1-851, limits assumed); experiment: sandwich ELISA, STAT protein coated at 0.5 µg/mL
STAT 5a protein [4] = biological target: T1, STAT 5a protein; experiment: sandwich ELISA, STAT protein coated at 0.5 µg/mL; remark: listed apart in the source
STAT 1 protein [5] = biological target: T2, STAT 1 protein; experiment: sandwich ELISA, STAT protein coated at 0.5 µg/mL; remark: listed apart in the source
STAT 2 protein [6] = biological target: T3, STAT 2 protein; experiment: sandwich ELISA, STAT protein coated at 0.5 µg/mL; remark: listed apart in the source
STAT 5a protein [7] = biological target: T1, STAT 5a protein; experiment: sandwich ELISA, STAT protein coated at 0.5 µg/mL; remark: listed apart in the source
STAT 1 protein [8] = biological target: T2, STAT 1 protein; experiment: sandwich ELISA, STAT protein coated at 0.5 µg/mL; remark: listed apart in the source
STAT 2 protein [9] = biological target: T3, STAT 2 protein; experiment: sandwich ELISA, STAT protein coated at 0.5 µg/mL; remark: listed apart in the source
STAT 5a protein [10] = biological target: T1, STAT 5a protein; experiment: sandwich ELISA, STAT protein coated at 0.5 µg/mL; remark: listed apart in the source
STAT 1 protein [11] = biological target: T2, STAT 1 protein; experiment: sandwich ELISA, STAT protein coated at 0.5 µg/mL; remark: listed apart in the source
STAT 2 protein [12] = biological target: T3, STAT 2 protein; experiment: sandwich ELISA, STAT protein coated at 0.5 µg/mL; remark: listed apart in the source
[13] = biological target: Human recombinant TNF-α (Sigma-Aldrich) (human, UniProt P01375 77-233); experiment: cell-based or functional assay
[14] = biological target: T4, active human TNF-α full length protein (human, UniProt P01375 77-233); experiment: ELISA, wells coated with 0.5 µg/mL TNF-α, sdAb at 1 µg/mL
[15] = biological target: TNF-alpha (U937 cytotoxicity assay of Example 16) (UniProt P01375 77-233, limits assumed); experiment: cell-based or functional assay
[16] = biological target: T4, active human TNF-α full length protein
[17] = biological target: T4, active human TNF-α full length protein; remark: listed apart in the source
[18] = biological target: T4, active human TNF-α full length protein; remark: listed apart in the source
[19] = biological target: T4, active human TNF-α full length protein; remark: listed apart in the source
[20] = biological target: T4, active human TNF-α full length protein; remark: listed apart in the source
[21] = biological target: T4, active human TNF-α full length protein; remark: listed apart in the source
[22] = biological target: T4, active human TNF-α full length protein; remark: listed apart in the source
[23] = biological target: T4, active human TNF-α full length protein; remark: listed apart in the source
[24] = biological target: T4, active human TNF-α full length protein; remark: listed apart in the source
[25] = biological target: T4, active human TNF-α full length protein; remark: listed apart in the source
[26] = biological target: T4, active human TNF-α full length protein; remark: listed apart in the source
[27] = biological target: T4, active human TNF-α full length protein; remark: listed apart in the source

Human recombinant TNF-α (Sigma-Aldrich), sequence (P01375 77-233 limits assumed): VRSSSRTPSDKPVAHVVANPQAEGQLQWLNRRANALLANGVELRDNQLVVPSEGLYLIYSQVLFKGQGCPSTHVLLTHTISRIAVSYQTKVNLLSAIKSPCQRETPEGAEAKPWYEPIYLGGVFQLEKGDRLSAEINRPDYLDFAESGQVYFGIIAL
T4 sequence (P01375 77-233 limits assumed): as above
T3 sequence (P52630 whole entry): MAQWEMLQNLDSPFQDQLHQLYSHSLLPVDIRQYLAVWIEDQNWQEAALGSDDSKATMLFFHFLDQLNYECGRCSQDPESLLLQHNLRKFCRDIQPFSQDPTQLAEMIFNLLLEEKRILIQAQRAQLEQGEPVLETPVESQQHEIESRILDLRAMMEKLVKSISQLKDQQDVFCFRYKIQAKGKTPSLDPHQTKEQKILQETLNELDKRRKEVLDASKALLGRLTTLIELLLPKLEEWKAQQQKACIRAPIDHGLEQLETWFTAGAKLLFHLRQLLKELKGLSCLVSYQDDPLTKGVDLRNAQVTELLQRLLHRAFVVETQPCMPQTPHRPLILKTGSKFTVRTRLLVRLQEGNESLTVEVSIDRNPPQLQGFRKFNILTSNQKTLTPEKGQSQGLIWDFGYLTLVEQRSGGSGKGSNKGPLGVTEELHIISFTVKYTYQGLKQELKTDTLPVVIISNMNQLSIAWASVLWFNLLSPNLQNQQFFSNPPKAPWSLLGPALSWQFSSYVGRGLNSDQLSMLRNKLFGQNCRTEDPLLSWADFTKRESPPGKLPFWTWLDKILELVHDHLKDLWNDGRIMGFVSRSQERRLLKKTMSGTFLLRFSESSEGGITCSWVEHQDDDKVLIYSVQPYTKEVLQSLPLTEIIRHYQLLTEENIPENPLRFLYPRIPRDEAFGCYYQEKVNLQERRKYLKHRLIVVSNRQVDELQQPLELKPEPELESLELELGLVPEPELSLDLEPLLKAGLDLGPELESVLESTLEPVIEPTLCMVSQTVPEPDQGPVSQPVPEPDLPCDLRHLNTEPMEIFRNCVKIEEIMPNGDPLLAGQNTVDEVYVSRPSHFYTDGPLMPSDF
TNF-alpha (U937 cytotoxicity assay of Example 16), sequence (P01375 77-233 limits assumed): as the sequence (P01375 77-233 limits assumed) above

B1: STAT5-31 (SEQ ID NO:83) sdAb (VHH)
VHH: EVQLVESGGGSVQTGGSLRLSCAASGFPFSSHVMGWFRQAPGKKREGVAAISVDSGSTWYADSVKGRFTISLDSAKNTLYLQMNSLKPEDTAMYYCATRRGVILTLSPETYDYWGQGTQVTVSS
- Mean OD450 (STAT 5a protein [1]): 0.017 OD450
- Mean OD450 (STAT 1 protein [2]): 0.024 OD450
- Mean OD450 (STAT 2 protein [3]): 0.007 OD450
- Mean OD450 (STAT 5a protein [4]): 0 OD450
- Mean OD450 (STAT 1 protein [5]): 0.056 OD450
- Mean OD450 (STAT 2 protein [6]): 0.015 OD450
- Mean OD450 (STAT 5a protein [7]): 0.158 OD450
- Mean OD450 (STAT 1 protein [8]): 0.122 OD450
- Mean OD450 (STAT 2 protein [9]): 0.076 OD450
- Mean OD450 (STAT 5a protein [10]): 0 OD450
- Mean OD450 (STAT 1 protein [11]): 0.015 OD450
- Mean OD450 (STAT 2 protein [12]): 0 OD450

B2: anti-TNF-alpha VHH66 (SEQ ID NO:45) sdAb (VHH)
VHH: HVQLVESGGGSVEAGGSLRLSCAASGFRYAAYCMGWFRQADGKEREGVATIDIDGLTTHADSVKGRFTISRDNAKNTLSLQMNDLKPEDTAMYYCAADRDRCGSIWTYAYKYRGQGTLVTVSS
- EC50 (inhibition of TNF-α cytotoxicity on L929 cells, Assay 1, Batch A) [13]: 2.9 µg/mL
- EC50 (inhibition of TNF-α cytotoxicity on L929 cells, Assay 1, Batch B) [13]: 1.2 µg/mL
- EC50 (inhibition of TNF-α cytotoxicity on L929 cells, Assay 1, Batch C) [13]: 2.3 µg/mL
- EC50 (inhibition of TNF-α cytotoxicity on L929 cells, Assay 2, Batch B) [13]: 4.5 µg/mL
- EC50 (inhibition of TNF-α cytotoxicity on L929 cells, Assay 2, Batch C) [13]: 6.2 µg/mL

B3: anti-TNF-alpha VHH66 (SEQ ID NO:45) sdAb (VHH)
VHH: B2 VHH
- OD450 [14]: 3.86 OD450

B4: anti-TNF-alpha VHH62 (SEQ ID NO:47) sdAb (VHH)
VHH: QVQLVESGGGPVQAGETLRLSCTASGFTFAEADMGWYRQAPGHECELVSTITTEGITSEASSYYADSVRGRFTISRDNAKNMVYLQMNSLKPEDTAVYYCAPDPYAYSTYSDYCSWAQGTQGTLVTVSS
- IC50 (inhibition of TNF-alpha cytotoxicity against U937 cells, ATP luminescence) [15]: ~714 µg/mL

B5: anti-TNF-alpha VHH62 (SEQ ID NO:47) sdAb (VHH)
VHH: B4 VHH
- Signal/Noise Ratio [16]: 1.1
- Signal/Noise Ratio [17]: 1.1
- Signal/Noise Ratio [18]: 1.7
- Signal/Noise Ratio [19]: 1.1
- Signal/Noise Ratio [20]: 1.4
- Signal/Noise Ratio [21]: 2
- Signal/Noise Ratio [22]: 0.9
- Signal/Noise Ratio [23]: 1.5
- Signal/Noise Ratio [24]: 1.5
- OD450 [14]: 0.005 OD450
- Signal/Noise Ratio [25]: 1.9
- Signal/Noise Ratio [26]: 1.3
- Signal/Noise Ratio [27]: 1.4

B6: anti-TNF-alpha VHH69 (SEQ ID NO:46) sdAb (VHH)
VHH: EVQLVESGGGSVLAGGSLRLSCVASGFTSRYNYMAWFRQAPGKEREGVATIGTASGSADYYGSVKDRFTISQDNAKNTVYLQMNSLKPEDTAMYYCAARTYGTISLTPSDYRYWGQGTLVTVSS
- IC50 (inhibition of TNF-alpha cytotoxicity against U937 cells, ATP luminescence) [15]: > 208 µg/mL
